Data on three proteins can be found in PMC4636328, “Two Polyhydroxyalkanoate Synthases from Distinct Classes from the Aromatic Degrader Cupriavidus pinatubonensis JMP134 Exhibit the Same Substrate Preference” (PLoS ONE, 2015).

By Km is commonly meant the substrate concentration at which the rate is half of its maximum. One may read the Vmax as the rate approached at saturating substrate. As usually defined, the kcat is the number of substrate molecules converted per active site and unit of time at saturation. The kcat/Km is the second-order rate constant that governs catalysis at low substrate concentration.

Substrate in data set [1]: CCCCC[C@@H](O)CC(=O)SCCNC(=O)CCNC(=O)[C@H](O)C(C)(C)COP(=O)(O)OP(=O)(O)OC[C@H]1O[C@@H](n2cnc3c(N)ncnc32)[C@H](O)[C@@H]1OP(=O)(O)O
Nature of the data set: purified protein. Type of data set: biochemical, Pseudomonas aeruginosa. The settings on record: 50 mM PBS, pH 7.5, 20 mM MgCl2, 0.5 mM DTNB, R/S substrate mixture, R isomer counted.

Substrate in data set [2]: C[C@@H](O)CC(=O)SCCNC(=O)CCNC(=O)[C@H](O)C(C)(C)COP(=O)(O)OP(=O)(O)OC[C@H]1O[C@@H](n2cnc3c(N)ncnc32)[C@H](O)[C@@H]1OP(=O)(O)O
Nature of the data set: purified protein. The data set is classed as biochemical, Cupriavidus pinatubonensis. The conditions noted are these: 50 mM PBS, pH 7.5, 20 mM MgCl2, 0.5 mM DTNB, R/S substrate mixture, R isomer counted.

B1: PhaC1Pa (Pseudomonas aeruginosa PAO1) (protein)
chain: MSQKNNNELPKQAAENTLNLNPVIGIRGKDLLTSARMVLLQAVRQPLHSARHVAHFSLELKNVLLGQSELRPGDDDRRFSDPAWSQNPLYKRYMQTYLAWRKELHSWISHSDLSPQDISRGQFVINLLTEAMSPTNSLSNPAAVKRFFETGGKSLLDGLGHLAKDLVNNGGMPSQVDMDAFEVGKNLATTEGAVVFRNDVLELIQYRPITESVHERPLLVVPPQINKFYVFDLSPDKSLARFCLRNGVQTFIVSWRNPTKSQREWGLTTYIEALKEAIEVVLSITGSKDLNLLGACSGGITTATLVGHYVASGEKKVNAFTQLVSVLDFELNTQVALFADEKTLEAAKRRSYQSGVLEGKDMAKVFAWMRPNDLIWNYWVNNYLLGNQPPAFDILYWNNDTTRLPAALHGEFVELFKSNPLNRPGALEVSGTPIDLKQVTCDFYCVAGLNDHITPWESCYKSARLLGGKCEFILSNSGHIQSILNPPGNPKARFMTNPELPAEPKAWLEQAGKHADSWWLHWQQWLAERSGKTRKAPASLGNKTYPAGEAAPGTYVHER
notes: full length, C-terminal His6 tag, pET28a, E. coli BL21(DE3), Ni-NTA purified
Take B1: in data set [1], the Michaelis-Menten constant (Km) was determined as 67.28 ± 12.86 µM, the Vmax turned out to be 39 µM/min, the kcat came out at 0.94 ± 0.0883 s⁻¹ and the kcat/Km came to 13800 ± 4170 M⁻¹ s⁻¹.

B2: PhaC2 (Cupriavidus pinatubonensis JMP134) (protein)
chain: MTTAVGTRTLAKTTKKAKKPAASAVAPEAIVDSAPAMTGPNPFVGLRPEDMVSTAQQIGAQCVQEPTLLLQQQTKLAQDLFAVVDGSAPPPCTRDRRFGDPAWQDNPVYRMALQGYQAWRDALTGFVTGSVMDGRSKERAQYFTDLLIDAVAPTNTLLGNPAALRKTFESGGLNLVSGLVNLLTDTLTNQGMPSQVDKSAFRIGKDLAATPGAVVFRNDVLELIQYTPTTANVHARPQLIVPPQVNKFYVFDLSQGKSMVEYLVRNEMQVFMVSWRNPTTLHRDWNLDTYVGALIEAIHAIRDITGSPDVNLHGACSGAMTMSALMGYCAARGEKLVNAATLMVSVFGLDSQSQLGLFATPEAIDAARQGSQARGVLDGGELGRVFAWMRPNDLVWNYWVNNYLLGKAPPAFDILYWNNDTTRLPAGLHGQLLDMLTLNQLSTPGALRVLGQPIDLSAVDCDKYVLAGMTDHITPWKGVYRSVRAFGGKTEFVLSSSGHVQSLINPPGNAKAKFFLNDAQMADPEAWLEGATVTPSSWWEHWSEWLKTRSGPLNAAPSRLGSDRHAPCADAPGRYVTEA
notes: full length (579 residues), C-terminal His6 tag, pET28a, E. coli BL21(DE3), Ni-NTA purified, about 65 kDa
Turning to B2, in data set [2], the Km is 115.93 ± 9.15 µM, the Vmax was 1.74 µM/min, the kcat is 0.0625 ± 0.000333 s⁻¹ and the kcat/Km amounted to 533 ± 33.3 M⁻¹ s⁻¹.

B3: PhaC1 (Cupriavidus pinatubonensis JMP134) (protein)
chain: MATGKGAAASSTEGKSQPFKFPPGPLDPATWLEWSRQWQGPEGNGGTVPGGFPGFEAFAASPLAGVKIDPAQLAEIQQRYMRDFTELWRGLAGGDTESAGKLHDRRFASEAWHKNAPYRYTAAFYLLNARALTELADAVEADPKTRQRIRFAVSQWVDAMSPANFLATNPDAQNRLIESRGESLRAGMRNMLEDLTRGKISQTDETAFEVGRNMAVTEGAVVFENEFFQLLQYKPLTDKVYTRPLLLVPPCINKFYILDLQPEGSLVRYAVEQGHTVFLVSWRNPDASMAGCTWDDYIENAAIRAIEVVRDISGQDKINTLGFCVGGTIISTALAVLAARGEHPVASLTLLTTLLDFTDTGILDVFVDEPHVQLREATLGGASGGLLRGVELANTFSFLRPNDLVWNYVVDNYLKGNTPVPFDLLFWNGDATNLPGPWYCWYLRHTYLQNELKEPGKLTVCNEPVDLGAINVPTYIYGSREDHIVPWTAAYASTALLKNDLRFVLGASGHIAGVINPPAKKKRSHWTNDALPESAQDWLAGAEEHHGSWWPDWMTWLGKQAGAKRAAPTEYGSKRYAAIEPAPGRYVKAKA
notes: full length (591 residues), C-terminal His6 tag, pET28a, E. coli BL21(DE3), Ni-NTA purified, about 65 kDa
Consider B3, for which, in data set [2], the Km was determined as 45.46 ± 6.02 µM, the Vmax stood at 38.3 µM/min, the catalytic constant (kcat) stood at 0.664 ± 0.0352 s⁻¹ and the kcat/Km worked out at 14700 ± 3170 M⁻¹ s⁻¹.
